The target of experiment [1] is T1, Recombinant Human TfR Protein (R&D Systems; Catalog #2474-TR) (human, UniProt P02786 89-760).
T1 construct: Bought reagent, injected as analyte in SPR; also called hTfR1; hTFR1
Nature of the experiment: SPR (Biacore 8K+), I2S immobilized on CM5 by amine coupling, TfR as analyte. On the procedure: (§1) Surface Plasmon Resonance (SPR) assays: Binding affinity between human/mouse receptor with Iduronate 2 Sulfatase or idursulfase (I2S) tagged with an anti-transferrin receptor binding single domain antibody (VHH) was determined using the Biacore 8K+ instrument (Cytiva; Danaher Corporation). In this experiment, samples were immobilized on a series S sensor chip CM5 (Catalog #29104988) via amine coupling. Samples immobilized (ligand) were i) I2S-VHH ii) VHH-I2S iii) I2S as negative control iv) Holo transferrin peptide as positive control. 1 ug/mL of ligand, reconstituted in Acetate pH 4.0, was immobilized on individual flow cells for 420 s, yielding a final immobilization level of approximately 350 Response Units. Recombinant Human TfR Protein (R&D Systems; Catalog #2474-TR) and Mouse TfR1 (TR06671428-001; Takeda) were injected on this surface (as analyte) with a concentration range of 5, 2.5, 1.25, 0.625 & 0.156 ug/mL. Analyte series was injected for 120 s, followed by a dissociation phase for a duration that yields at least 10% dissociation of analyte. Resulting sensograms were analyzed using the 1:1 Binding Model.

In experiment [2] the target is T2, Mouse TfR1 (TR06671428-001; Takeda) (mouse, UniProt Q62351 89-763).
T2 construct: Injected as analyte in SPR; also called mTFR1; mouse transferrin receptor 1
T2 sequence (Q62351 89-763 limits assumed): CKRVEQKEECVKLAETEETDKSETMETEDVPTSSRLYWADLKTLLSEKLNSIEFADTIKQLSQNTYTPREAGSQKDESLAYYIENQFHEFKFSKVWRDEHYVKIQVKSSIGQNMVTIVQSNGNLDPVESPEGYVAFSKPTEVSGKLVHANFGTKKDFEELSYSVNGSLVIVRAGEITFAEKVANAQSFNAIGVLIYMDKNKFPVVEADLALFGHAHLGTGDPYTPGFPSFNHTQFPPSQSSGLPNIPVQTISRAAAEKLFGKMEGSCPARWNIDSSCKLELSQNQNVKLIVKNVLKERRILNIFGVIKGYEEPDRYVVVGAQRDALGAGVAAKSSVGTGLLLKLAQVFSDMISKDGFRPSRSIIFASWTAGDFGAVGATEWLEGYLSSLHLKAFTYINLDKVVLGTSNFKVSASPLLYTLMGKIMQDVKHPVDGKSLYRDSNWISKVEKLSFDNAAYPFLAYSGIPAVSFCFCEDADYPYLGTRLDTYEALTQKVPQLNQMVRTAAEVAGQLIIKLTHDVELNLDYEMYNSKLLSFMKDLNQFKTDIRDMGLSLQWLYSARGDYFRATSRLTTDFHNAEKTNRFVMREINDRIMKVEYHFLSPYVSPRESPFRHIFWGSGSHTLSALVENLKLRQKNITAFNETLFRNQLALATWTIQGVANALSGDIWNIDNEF
Kind of experiment: SPR (Biacore 8K+), I2S immobilized on CM5 by amine coupling, TfR1 as analyte. On the procedure: as §1
Background: Surface plasmon resonance follows binding to a sensor surface in real time, without labels.

T1 sequence (P02786 89-760 limits assumed): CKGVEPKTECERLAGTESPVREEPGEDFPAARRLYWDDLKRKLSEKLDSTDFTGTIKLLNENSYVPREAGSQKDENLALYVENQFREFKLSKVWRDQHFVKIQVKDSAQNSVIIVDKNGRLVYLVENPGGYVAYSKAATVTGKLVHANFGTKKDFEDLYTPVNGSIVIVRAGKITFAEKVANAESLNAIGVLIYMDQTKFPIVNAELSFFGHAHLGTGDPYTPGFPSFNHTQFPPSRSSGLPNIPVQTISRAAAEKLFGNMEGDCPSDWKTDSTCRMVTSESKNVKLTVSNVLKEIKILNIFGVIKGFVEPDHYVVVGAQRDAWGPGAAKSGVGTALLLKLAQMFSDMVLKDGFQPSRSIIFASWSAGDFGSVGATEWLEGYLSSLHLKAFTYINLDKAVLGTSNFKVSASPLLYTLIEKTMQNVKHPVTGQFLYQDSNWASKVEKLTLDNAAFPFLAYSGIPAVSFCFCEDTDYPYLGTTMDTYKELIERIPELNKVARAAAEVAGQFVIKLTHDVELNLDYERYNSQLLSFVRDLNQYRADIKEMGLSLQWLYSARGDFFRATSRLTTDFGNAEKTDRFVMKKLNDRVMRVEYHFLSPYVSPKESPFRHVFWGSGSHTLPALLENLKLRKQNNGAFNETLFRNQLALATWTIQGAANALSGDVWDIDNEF

B1: I2S control (untagged human iduronate-2-sulfatase, purified protein) (enzyme)
chain: SETQANSTTDALNVLLIIVDDLRPSLGCYGDKLVRSPNIDQLASHSLLFQNAFAQQAVCAPSRVSFLTGRRPDTTRLYDFNSYWRVHAGNFSTIPQYFKENGYVTMSVGKVFHPGISSNHTDDSPYSWSFPPYHPSSEKYENTKTCRGPDGELHANLLCPVDVLDVPEGTLPDKQSTEQAIQLLEKMKTSASPFFLAVGYHKPHIPFRYPKEFQKLYPLENITLAPDPEVPDGLPPVAYNPWMDIRQREDVQALNISVPYGPIPVDFQRKIRQSYFASVSYLDTQVGRLLSALDDLQLANSTIIAFTSDHGWALGEHGEWAKYSNFDVATHVPLIFYVPGRTASLPEAGEKLFPYLDPFDSASQLMEPGRQSMDLVELVSLFPTLAGLAGLQVPPRCPVPSFHVELCREGKNLLKHFRFRDLEEDPYLPGNPRELIAYSQYPRPSDIPQWNSDKPSLKDIKIMGYSIRTIDYRYTVWVGFNPDEFLANFSDIHAGELYFVDSDPLQDHNMYNDSQGGDLFQLLMP
notes: Negative control in the SPR assay; also called idursulfase; IDS
Take B1: the binding result in experiment [1] and in experiment [2] was “no binding (tested: analyte 0.156-5 ug/mL)” throughout.

For the origin of these results see patent publication US20250213730A1 (Takeda / Millennium, published 2025).
